Results reported in patent US10677782B2, “Methods of determining interferon having direct inhibitory effects on tumors and uses thereof” (SUPERLAB FAR EAST LIMITED, priority 2013, dated 2020).

Columns and labels:
[1] = test system: Human Cervical Cancer Hela Xenografts; assay: Human cervical cancer Hela xenografts in nude mice (Example 2); format: in vivo; settings: for TV (mm^3, mean ± SD) (D0): day 0, start of treatment; for TV (mm^3, mean ± SD) (D28): day 28
Protocol: (§1) Before commencement of this study, the xenografts were passaged twice in nude mice. Under sterile conditions, well-grown tumors were cut into 1.5 mm^3 fragments and one such fragment was injected by trocar needle into the right flank of each study animal. […] Individual tumor size (length and width) was measured twice per week with microcalipers. Tumor volume (V) was calculated using the formula: V=(length×width^2)/2. Individual relative tumor volume (RTV) was calculated using the formula: RTV=Vt/V0, where Vt is the tumor volume on the day of measurement and V0 is the tumor volume on the day of first treatment. Therapeutic effect of the test article or control article was expressed in terms of TIC (%), using the formula: TIC (%) (mean RTV of the treated group/mean RTV of the control group)×100%; and in terms of % Inhibition, using the formula: % Inhibition=100%−T/C %.
Then 1.5 mm^3 fragments were prepared for s.c. implantation into the animals.

[2] = test system: Human Colon Cancer HT-29 Xenografts; assay: Human colon cancer HT-29 xenografts in nude mice (Example 3); format: in vivo; settings: for TV (mm^3, mean ± SD) (D0): day 0, start of treatment; for TV (mm^3, mean ± SD) (D28): day 28
Protocol: as §1
Then, 1.5 mm^3 fragments were prepared for s.c. implantation into the test animals.

[3] = Tolerability and body weight of tumor-bearing mice, Example 1; format: in vivo, BALB/cA nu/nu mice; settings: 0.05-0.15 mg/mouse i.t. every other day, 21 days
Excerpt: The animals used were 4-6 weeks old male BALB/cA nu/nu mice, weighing about 23±2 g, obtained from the Shanghai Institute of Materia Medica (Shanghai, P.R. China). The study protocol was reviewed by the Committee on the Use and Care of Animals of Shanghai Institute of Materia Medica for compliance with regulations, and Committee approval was obtained prior to study initiation. Wherever possible, procedures used in this study were designed to avoid or minimize discomfort, distress, and pain to the animals. Animals that experience severe or chronic pain or distress that could not be relieved were painlessly euthanized, in accordance to regulations. Animals were housed 6 to a cage. They were ear-marked with ear hole punch identification. The room temperature was maintained at 25° C.±1° C. Lighting was set at 12 hr on and 12 hr off. Food was provided ad libitum. City tap water, filtered with a 5 micrometer (μm) filter, was provided to the animals ad libitum via water bottles.
Animals were assigned to treatment groups randomly. Initially, all animals were placed in one large animal cage. For assignment to the study, they were later separately housed, with 6 animals per cage per treatment group. […] Tumor growth was monitored by measuring the length and width of each tumor twice a week during the course of the study. […]

[4] = test system: different cancer cells; assay: Cell viability, Am-Blue assay, 48 hr, across the cancer cell lines tested; format: cell-based, human; settings: 100 mcg/ml, any of the cancer cell lines
Protocol: Cell culture and reagents human lung cancer cell lines (A549, H1299, H460, Calu-1), human liver cancer cell lines (SMMC-7721, Huh-7, CL-1), human cervical carcinoma cell line (Hela), human breast cancer cell line (MDA-MB-231), human pancreatic cancer cell line (PANC-1) and human colon cancer cell lines (SW620, HT29, SW480) were purchased from the Shanghai Cell Collection (Shanghai, China). The above cell lines were cultured in 5% CO2 at 37° C. in corresponding complete growth medium formulated by the Shanghai Cell Collection, with 10% heat-inactivated fetal bovine serum (Biochrom, Germany), supplemented with 4 mM glutamine, 50 U/ml penicillin and […] streptomycin.
About 5×10^3 cells in 100 μl complete medium per well were plated in 96-well plates, incubated overnight, and then treated with IFN α-2b or rSIFN-co at concentrations of 100 μg/ml, 50 μg/ml, 25 μg/ml, 12.5 μg/ml, 6.25 μg/ml, 3.13 μg/ml, 1.56 μg/ml, 0.78 μg/ml, 0.39 μg/ml, and 0.20 μg/ml, respectively, for about 48 hr, at which time the cells were harvested for analysis. The cell viability rate was evaluated by SunBio Am-Blue assay kit (Cat #: SBAB8025, Shanghai SBO Medical Biotechnology Co., Ltd, Shanghai, China). […] Results are shown in FIG. 5, in which viability of the tumor cells was expressed as a percentage relative to control cells that were not treated. […]

[5] = test system: beta-catenin protein level in A549 cells; assay: Beta-catenin protein level by Western Blot; format: cell-based, human; settings: 10 mcg/ml
Protocol: (§2) Cancer cells, A549 and Sw480, were cultured to about 85% confluency and put into 6 well plates. The cells were treated with either 10 mcg/ml IFNα-2b or rSIFN-co or left untreated as control (Mock) for 24 hr, 48 hr, or 72 hr, respectively. After treatment, the cells were harvested for Western Blot to detect the beta-catenin protein level, using its specific antibody, with GAPDH as endogenous loading control. The experiment was conducted in triplicate.
(§3) To determine the expression of various proteins, cells were harvested from the plates and total cellular protein were extracted using extraction reagents (Cat #: P0013) according to the manufacturer's protocol (Beyotime, China). The total protein concentration was determined by the Lowry Protein Assay kit (Bio-Rad, USA). […] The membranes were blocked with 5% skimmed milk, bovine serum albumin, 10 mmol/L Tris-HCl at pH 8.0, 150 mmol/L NaCl, and 0.05% Tween 20 overnight at 4° C. The blocked membranes were then incubated with primary antibodies (1:1000 dilutions), followed by secondary HRP-conjugated antibodies. Blots were visualized using Luminescence/Fluorescence Imaging LAS4000 System (GE Healthcare Life Sciences, USA) with super signal west pico chemiluminescent substrate kit (Thermo scientific, USA).
(§4) For this determination, the primary antibodies used were mouse monoclonal anti-beta-catenin antibodies (1:1000; Santa Cruz Technology, Santa Cruz, Calif.) and mouse monoclonal anti-GAPDH antibodies (1:2000) (Kangwei Biotechnology, China). Anti-mouse HRP-conjugated secondary antibodies (Santa Cruz Technology, Santa Cruz, Calif.) were used at concentrations of 1:2000.

[6] = test system: beta-catenin protein level in SW480 cells; assay: Beta-catenin protein level by Western Blot; format: cell-based, human; settings: 10 mcg/ml, 72 hours
Protocol: as §2, §3, §4

[7] = 0.05 mg/mouse i.t. every other day
[8] = 0.10 mg/mouse i.t. every other day
[9] = 0.15 mg/mouse i.t. every other day

B1: rSIFN-co: Recombinant super-compound interferon; amino acid sequence SEQ ID NO: 1 (same as interferon alfacon-1), encoded by SEQ ID NO: 2, novel tertiary structure (protein)
chain: MCDLPQTHSLGNRRALILLAQMRRISPFSCLKDRHDFGFPQEEFDGNQFQKAQAISVLHEMIQQTFNLFSTKDSSAAWDESLLEKFYTELYQQLNDLEACVIQEVGVEETPLMNVDSILAVKKYFQRITLYLTEKKYSPCAWEVVRAEIMRSFSLSTNLQERLRRKE
modifications: Amino acid sequence of recombinant interferon
With B1 the “TV (mm^3, mean ± SD) (D0)” value [1, 7] was 135 ± 26 mm^3, the “TV (mm^3, mean ± SD) (D28)” value [1, 7] was 886 ± 232 mm^3 and the “TV (mm^3, mean ± SD) (D0)” value [1, 8] was 135 ± 28 mm^3. The “TV (mm^3, mean ± SD) (D28)” value [1, 8] was 865 ± 186 mm^3, the “TV (mm^3, mean ± SD) (D0)” value [1, 9] was 136 ± 25 mm^3 and the “TV (mm^3, mean ± SD) (D28)” value [1, 9] was 1025 ± 400 mm^3. For the same molecule, the “TV (mm^3, mean ± SD) (D0)” value [2, 7] was 130 ± 26 mm^3, the “TV (mm^3, mean ± SD) (D28)” value [2, 7] was 416 ± 166 mm^3 and the “TV (mm^3, mean ± SD) (D0)” value [2, 8] was 128 ± 39 mm^3. For the same molecule, the “TV (mm^3, mean ± SD) (D28)” value [2, 8] was 541 ± 196 mm^3, the “TV (mm^3, mean ± SD) (D0)” value [2, 9] was 131 ± 36 mm^3 and the “TV (mm^3, mean ± SD) (D28)” value [2, 9] was 570 ± 144 mm^3. The “tolerability: signs of toxicity or weight loss” value [3] was “no signs of toxicity or weight loss”, the cell viability [4] was “cell viability could not be detected” and the beta-catenin protein level ([5]; 48 hr) was “dramatically decreased”. The beta-catenin protein level ([5]; 72 hr) was “Further decrease” and the beta-catenin protein level [6] was “Decrease in beta-catenin protein level in the SW480 cells was obvious”.
